Test results taken from patent US20140335107A1 (published 2014).
Where a chain is given by its changes, count along the chain named.

B1: huMA79b graft variant with HVR-L1 of SEQ ID NO: 17 (Fab, name in Kabat numbering, V domains shown)
VH: EVQLVESGGGLVQPGGSLRLSCAASGYTFSSYWIEWVRQAPGKGLEWVGEILPGGGDTNYNEIFKGRFTISADTSKNTAYLQMNSLRAEDTAVYYCTRRVPVYFDYWGQGTLVTVSS
VL: DIQMTQSPSSLSASVGDRVTITCKASKSVDYDGDSFLNWYQQKPGKAPKLLIYAASNLESGVPSRFSGSGSGTDFTLTISSLQPEDFATYYCQQSNEDPLTFGQGTKVEIKR
notes: Fab on phage; also called SPL-2 mutation
B2: huMA79b graft variant with HVR-L2 of SEQ ID NO: 26 (Fab, name in Kabat numbering, V domains shown)
VH: B1 VH
VL: B1 VL with K27Q, S56R, N57Y, E59K, S60R
notes: Fab on phage; also called L2-29 mutation
B3: huMA79b graft variant with HVR-L2 of SEQ ID NO: 27 (Fab, name in Kabat numbering, V domains shown)
VH: B1 VH
VL: B1 VL with K27Q, S56R, N57K, E59K
notes: Fab on phage
B4: huMA79b graft variant with HVR-L2 of SEQ ID NO: 24 (Fab, name in Kabat numbering, V domains shown)
VH: B1 VH
VL: B1 VL with K27Q, S56R, N57K, E59G, S60N
notes: Fab on phage
B5: huMA79b graft variant with HVR-L2 of SEQ ID NO: 23 (Fab, name in Kabat numbering, V domains shown)
VH: B1 VH
VL: B1 VL with K27Q, N57R
notes: Fab on phage
B6: huMA79b graft variant with HVR-L2 of SEQ ID NO: 35 (Fab, name in Kabat numbering, V domains shown)
VH: B1 VH
VL: B1 VL with K27Q, L58R, E59K
notes: Fab on phage
B7: huMA79b graft variant with HVR-L2 of SEQ ID NO: 19 (Fab, name in Kabat numbering, V domains shown)
VH: B1 VH
VL: B1 VL with K27Q, E59K
notes: Fab on phage
B8: huMA79b graft variant with HVR-L2 of SEQ ID NO: 28 (Fab, name in Kabat numbering, V domains shown)
VH: B1 VH
VL: B1 VL with K27Q, S56R, N57K, E59A
notes: Fab on phage
B9: huMA79b graft variant with HVR-L2 of SEQ ID NO: 34 (Fab, name in Kabat numbering, V domains shown)
VH: B1 VH
VL: B1 VL with K27Q, A55G, N57K, E59L, S60R
notes: Fab on phage
B10: huMA79b graft variant with HVR-L3 of SEQ ID NO: 20 (Fab, name in Kabat numbering, V domains shown)
VH: B1 VH
VL: B1 VL with K27Q, E97S
notes: Fab on phage; also called SPL-5 mutation
B11: huMA79b graft variant with HVR-L2 of SEQ ID NO: 31 (Fab, name in Kabat numbering, V domains shown)
VH: B1 VH
VL: B1 VL with K27Q, S56R, N57K, E59G
notes: Fab on phage; also called L2-38 mutation
B12: huMA79b graft variant with HVR-L2 of SEQ ID NO: 33 (Fab, name in Kabat numbering, V domains shown)
VH: B1 VH
VL: B1 VL with K27Q, A55S, S56R, N57Y, E59S, S60R
notes: Fab on phage
B13: huMA79b graft variant with HVR-L2 of SEQ ID NO: 25 (Fab, name in Kabat numbering, V domains shown)
VH: B1 VH
VL: B1 VL with K27Q, S56R, N57K, E59K, S60R
notes: Fab on phage
B14: huMA79b graft variant with HVR-L2 of SEQ ID NO: 36 (Fab, name in Kabat numbering, V domains shown)
VH: B1 VH
VL: B1 VL with K27Q, N57K, E59G
notes: Fab on phage
B15: huMA79b graft variant with HVR-L2 of SEQ ID NO: 18 (Fab, name in Kabat numbering, V domains shown)
VH: B1 VH
VL: B1 VL with K27Q, L58R
notes: Fab on phage
B16: huMA79b graft variant with HVR-L2 of SEQ ID NO: 29 (Fab, name in Kabat numbering, V domains shown)
VH: B1 VH
VL: B1 VL with K27Q, S56G, N57I, E59A, S60R
notes: Fab on phage
B17: huMA79b graft variant with HVR-L2 of SEQ ID NO: 30 (Fab, name in Kabat numbering, V domains shown)
VH: B1 VH
VL: B1 VL with K27Q, S56R, N57K, E59R
notes: Fab on phage
B18: huMA79b graft variant with HVR-L2 of SEQ ID NO: 32 (Fab, name in Kabat numbering, V domains shown)
VH: B1 VH
VL: B1 VL with K27Q, S56R, N57H, E59K, S60R
notes: Fab on phage

Biological target: T1, extracellular domain of human CD79b (huCD79becd) (human, UniProt P40259 29-159)
T1 construct: expressed in CHO cells
T1 sequence: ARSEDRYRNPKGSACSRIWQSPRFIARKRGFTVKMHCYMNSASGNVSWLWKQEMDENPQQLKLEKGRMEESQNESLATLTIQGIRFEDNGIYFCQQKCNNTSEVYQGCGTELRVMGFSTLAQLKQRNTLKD
Test: phage selection, Fab on phage
Protocol: For phage selection, the extracellular domain of CD79b (huCD79becd) (2 μg/ml) was immobilized in PBS on MaxiSorp microtiter plates (Nunc) overnight at 4° C. Plates were blocked for at least 1 h using Casein Blocker (Pierce). Phage were harvested from the culture supernatant and suspended in PBS containing 0.5% BSA and 0.05% Tween 20 (PBSBT). Following addition of the phage library and phage selection for 2 h, microtiter wells were washed extensively with PBS containing 0.05% Tween 20 (PBST) to remove unbound phage and bound phage were eluted by incubating the wells with 100 mM HCl for 30 min. Selection stringency may be increased during successive rounds of selection by increasing the number of washes with PBST or by incubating with soluble huCD79becd for increasing time periods prior to elution.

Does B1 bind?
Result: binds

Does B2 bind?
Result: binds

Does B3 bind?
Result: binds

Does B4 bind?
Result: binds

Does B5 bind?
Result: binds

Does B6 bind?
Result: binds

Does B7 bind?
Result: binds

Does B8 bind?
Result: binds

Does B9 bind?
Result: binds

Does B10 bind?
Result: binds

Does B11 bind?
Result: binds

Does B12 bind?
Result: binds

Does B13 bind?
Result: binds

Does B14 bind?
Result: binds

Does B15 bind?
Result: binds

Does B16 bind?
Result: binds

Does B17 bind?
Result: binds

Does B18 bind?
Result: binds
